The target of experiment [1] is v5-tagged full-length GIGYF2 (1–1,320) (human). The experiment is described as follows: proximity ligation.
For experiment [2] the target is unchanged. Put plainly: proximity ligation; cells cotransfected with v5-GIGYF2, HA-4EHP and FLAG-empty vector; fixed 24 h after transfection; PLA with v5 and HA antibodies.

Sequence of v5-tagged full-length GIGYF2 (1–1,320) (human) (Q6Y7W6 2-1299): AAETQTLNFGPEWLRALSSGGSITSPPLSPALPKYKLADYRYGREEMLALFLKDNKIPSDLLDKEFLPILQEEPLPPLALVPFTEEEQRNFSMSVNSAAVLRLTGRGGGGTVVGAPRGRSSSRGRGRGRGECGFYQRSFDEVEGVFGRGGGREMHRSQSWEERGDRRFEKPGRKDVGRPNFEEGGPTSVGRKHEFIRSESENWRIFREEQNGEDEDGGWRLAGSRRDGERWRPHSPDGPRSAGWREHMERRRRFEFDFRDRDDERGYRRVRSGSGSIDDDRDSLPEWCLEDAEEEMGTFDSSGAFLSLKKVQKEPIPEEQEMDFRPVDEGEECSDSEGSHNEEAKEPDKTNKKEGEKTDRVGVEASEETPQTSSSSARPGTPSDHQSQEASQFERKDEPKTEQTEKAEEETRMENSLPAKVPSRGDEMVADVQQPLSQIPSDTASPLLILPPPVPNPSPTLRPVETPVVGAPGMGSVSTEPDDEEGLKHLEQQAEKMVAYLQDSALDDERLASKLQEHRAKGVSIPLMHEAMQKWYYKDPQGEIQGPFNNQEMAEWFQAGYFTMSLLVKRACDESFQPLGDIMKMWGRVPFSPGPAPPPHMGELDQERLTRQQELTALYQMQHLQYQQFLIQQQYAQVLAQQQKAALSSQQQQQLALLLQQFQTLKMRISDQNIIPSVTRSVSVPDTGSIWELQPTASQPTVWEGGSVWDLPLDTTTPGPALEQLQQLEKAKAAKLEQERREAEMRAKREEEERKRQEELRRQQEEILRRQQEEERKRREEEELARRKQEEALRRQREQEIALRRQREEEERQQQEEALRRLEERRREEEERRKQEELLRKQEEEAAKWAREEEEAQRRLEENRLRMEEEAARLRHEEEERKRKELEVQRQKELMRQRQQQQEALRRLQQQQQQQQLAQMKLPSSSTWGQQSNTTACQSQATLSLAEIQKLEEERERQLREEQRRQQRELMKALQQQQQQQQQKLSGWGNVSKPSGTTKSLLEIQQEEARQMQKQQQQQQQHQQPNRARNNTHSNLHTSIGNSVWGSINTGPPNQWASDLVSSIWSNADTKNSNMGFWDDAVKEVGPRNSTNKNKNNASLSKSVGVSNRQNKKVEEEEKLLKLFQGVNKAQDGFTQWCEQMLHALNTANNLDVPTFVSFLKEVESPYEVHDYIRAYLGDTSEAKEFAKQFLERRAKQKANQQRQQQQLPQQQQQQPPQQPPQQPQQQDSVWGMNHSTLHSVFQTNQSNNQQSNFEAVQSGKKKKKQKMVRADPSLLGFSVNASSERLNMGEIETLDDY

For the substance “HA-tagged 4EHP (from UniProt O60573 1-245)”, the PLA punctate per cell (punctate per cell) in experiment [1] was 61; in experiment [2], 19.8.
